Measured values from the nanobody polyreactivity screen of Harvey et al. (2022).

Assay: yeast display, Sf9 membrane polyspecificity reagent, FACS + sequencing; frameworks hold sequencing errors
Method in brief: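 After 36–48 hours of galactose induction, yeast (Saccharomyces cerevisiae BJ5465) displaying a synthetic nanobody library were stained at 4 °C for 1 hour with 10% biotinylated, detergent-solubilized Sf9 membrane reagent. Streptavidin microbeads enriched the stained cells before FACS sorting into low and high (top ~1%) gates on anti-HA and streptavidin fluorescence. Each clone's polyreactivity label reflects its gate of origin.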

Sequence	polyreactivity (PSR sort gate)
QVQLVESGGGLVQAGGNLRLSCAASGIILYRYAMGWYRQAHGKERELVAAISRRGGSTYYADSVKGRFTISRDNAKNSVYLQMNSLKPEDTAVYYCAAYYRGYAYYYWGQGTQVTVSS	high polyreactivity
QVQLVESGGGLVQAGGNLRLSCAASGSIFYWNAMGWYRQAPGKERELVAAINYSGDSTYYADSVKVRFTISRDNAKNTVYLQMNSLKPEDTAVYYCNFDYWGQGSQVTVSS	low polyreactivity
QVQLVESGGGLVQAGGRHRISCAASGLICVTYAMGWYRQAPGKERELVAVITASGDGTYYADSVKGRFTMSRDNAKNTVYLQMNSLKPEDSAVYSCAAGNMSQVGAIGKNTSQSDYWGQGTHVTVSS	low polyreactivity
QVQLVESGGGLVQAGGRIRLSCAASGIIFYPYAMGWYRQAPGKERELVAGISSSGGSTYYADSVKGRFTISRDNAKNTVYLQMNSLKPEDTAVYYCAAVRISRTPRGLYEYWGQGTQVTVSS	high polyreactivity
QVQLVESGGGLVQAGGRIRLTCAASGFTFKAYSMGCDRQAPGKERELVAAITKSGGRTFYADSVKGRFRISRDNAKNTVYLQMNSLKPEDTAVYYCAASYTVYYWGQGTQVTVSS	high polyreactivity
QVQLVESGGGLVQAGGRLLLSCAASGLTFYEYAMGWYRQAHGKERELVADIDFNGGSTSYAYSVKGRFTISRDNAKNTVYLQMNSLKPEDTAVYYCNTRDRGDVVTGLDYSGQGTQVTVSS	low polyreactivity
QVQLVESGGGLVQAGGRLPLSCAASGSTIYINAMGWYRQPPGKQRELVAPISYSGGSSYFADSVKGRFTISRDYAKNTVYFQKNSLIPEDTRVYYCYARGLQSFYPGYWFRGDFWGQGTQVTVSS	high polyreactivity
QVQLVESGGGLVQAGGRLRISCAASGFTFTRYAMRWYRQAPGKERELVAAISWSGGSTYYADSVKGRFTISRDNAKNTVSFQMNSLKPEDTAVYYCAKRGTVRQGGYGFWGQGTQVSVSS	high polyreactivity
QVQLVESGGGLVQAGGRLRISCAASGSTFQPYAMGWYRQAPGKERELVAAISWRGGSTYYADSVKGRFTISRDNAKNTVYLQMNSLKPEDTAVSYCAAYFYFRRGTDYDYWGQGTQVTVSS	high polyreactivity
QVQLVESGGGLVQAGGRLRITCAASGRTFKTYAMGWYRPAPGKERELVAAISRRGGSTYFADSVKGRFTISRDNAKNTVYLQMNSLKPEDTAVYYCASGNSVGLGWGQGTQVTLSS	high polyreactivity
QVQLVESGGGLVQAGGRLRLICAASGSTFVTNYMGWYRQAPGKERELVAAISSGTSTNYADSVKGRFTISRDNAKNSVYLPMNSLTPEDTAVYYCAADSLKRYDYWGQGTQVTVSS	low polyreactivity
QVQLVESGGGLVQAGGRLRLRCAASGFILDTYAMGGYRQAAGNERELVAGITVRGGSTYYADSVKGRFTISRDNAKNTVYLQMNSLKPEDTAVYYCNAAQDRFGYRRSGYWYDYWGQGTQVTVSS	low polyreactivity
QVQLVESGGGLVQAGGRLRLSCAAAGSIFSYTMGWYRQAPWKERELVAAIRRRGGSTYYADSVKGRFTISRDNAKNTVYLQMTSLKPEDTAVYYCAADGYQYRHRRFFYWGQGTQVTVSS	high polyreactivity
QVQLVESGGGLVQAGGRLRLSCAASASIFRLYAMGWYRQAPGKERELVAAIRWRAGSTYYADSVKGRFTLSRDNAKNTVYLQMNSLKPEETAVNYCAADAISSAWYAKYDYWGQGTQVTGSS	high polyreactivity
QVQLVESGGGLVQAGGRLRLSCAASGFIFRRYAIGWYRQAPGKERELVAAINRGGRTYYADSVKGRFTISRDNAKNTVYLQMNSLKPEDTAVYYCAVGSVSSDDWGQGTQVTVSS	high polyreactivity
QVQLVESGGGLVQAGGRLRLSCAASGFIFSYYAMGWYRQAPGKERELVAAINYSGGRTYYADSVKGRFTISRDNAKNTVYLQMNSLKPEDTAVYYCNAVTFGRRAFDYWGQGTQVTVSS	high polyreactivity
QVQLVESGGGLVQAGGRLRLSCAASGFIFYYYAMGWYRQAPGKERELVAVLTESASSTYYADSVKGRFTISRDNAKNTVYLQMNSLKPEDTAVYYCNADFWPYTGKYDYWGQGTQVTVSS	low polyreactivity
QVQLVESGGGLVQAGGRLRLSCAASGFTFGWNAMGWYRQAPGKEREMVASIYSGDSTYYADSVKGRFTISRDNAKNTVYLQMNSLKPEDTAVYYCATAPYVTSRRYGPYEYWGQGTQVTVSS	low polyreactivity
QVQLVESGGGLVQAGGRLRLSCAASGFTFNVNALGGYRPAPGKERELVATITWSDGSTRYADSVKGRFTISRDNAKNTVYLQMNSLKPEDTAVYYCATRWSYPYSYRYYYWGQGTQVTVSS	low polyreactivity
QVQLVESGGGLVQAGGRLRLSCAASGFTFTRYAMGWYRQAPGKERELVAAISWSGGSTYYADSVKGRFTISRDNAKNTVYLQMNSLKPEDTAVYYCAKRGTVRQGGYGYWGQGTQVTVSS	high polyreactivity
QVQLVESGGGLVQAGGRLRLSCAASGFTFYRYAMGWYRQAPGKVRQLVATISASGGSTYYADSVKGRFTISRDNAKNTVYLQMNSLKPEDTAVYYCAVRYKSWYGFNYWGQGTQVTVSS	high polyreactivity
